Binding result, binding signal and activity data for nine molecules are collected here from patent publication US20090170069, “Cell free methods for detecting protein-ligand binding” (The Arizona Board of Regents on behalf of the University of …, published 2009).

Series [1] concerns the target Aart-NFluc (six-finger zinc finger Aart) (synthetic). Kind of series: competition; competes with E2C-1-Aart in split-luciferase assay with CFluc-E2C; IC50 only in figure; reference hairpin. The following applies: tags: N-terminal His tag, C-terminal NFluc(2-416) split luciferase fragment.
For series [2] the target is unchanged. Kind of series: competition; single A to T bp substitution in finger 3 triplet. The following applies: tags: N-terminal His tag, C-terminal NFluc(2-416) split luciferase fragment; hairpin.
For series [3], the target named is CFluc-E2C (six-finger zinc finger E2C) (synthetic). Kind of series: with HER2 122-140-Aart hairpin-guide and 1 nM HER2 transcript. The following applies: tags: N-terminal CFluc(398-550) split luciferase fragment; hairpin with ssDNA guide tail.
Series [4] concerns the target Aart-NFluc (six-finger zinc finger Aart) (synthetic). Description: with VEGF60-78-E2C hairpin-guide and 1 nM VEGF transcript. The following applies: tags: N-terminal His tag, C-terminal NFluc(2-416) split luciferase fragment; hairpin with ssDNA guide tail.
For series [5] the target is unchanged. Description: with E2C-HER2 100-118 hairpin-guide and 1 nM HER2 transcript. The following applies: tags: N-terminal His tag, C-terminal NFluc(2-416) split luciferase fragment; hairpin with ssDNA guide tail.
Series [6] addresses CFluc-E2C (six-finger zinc finger E2C) (synthetic). Description: with VEGF81-99-Aart hairpin-guide and 1 nM VEGF transcript. The note with it: tags: N-terminal CFluc(398-550) split luciferase fragment; hairpin with ssDNA guide tail.
Series [7] shares this target. Kind of series: with Pum2-Aart hairpin-guide and 1 nM target ssRNA or ssDNA; G to T target mutation gives background. The note with it: tags: N-terminal CFluc(398-550) split luciferase fragment; hairpin with ssDNA guide tail.
The target in series [8] is Aart-NFluc (six-finger zinc finger Aart) (synthetic). Kind of series: with Pum1-E2C hairpin-guide and 1 nM target ssRNA or ssDNA; G to T target mutation gives background. The following applies: tags: N-terminal His tag, C-terminal NFluc(2-416) split luciferase fragment; hairpin with ssDNA guide tail.
Sequence of Aart-NFluc (six-finger zinc finger Aart) (synthetic) (chain, as listed by the source): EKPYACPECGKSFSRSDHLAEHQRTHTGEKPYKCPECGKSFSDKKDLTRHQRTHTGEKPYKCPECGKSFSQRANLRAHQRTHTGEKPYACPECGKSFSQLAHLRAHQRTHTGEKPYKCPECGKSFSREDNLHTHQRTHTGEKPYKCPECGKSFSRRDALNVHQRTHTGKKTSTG

Sequence of CFluc-E2C (six-finger zinc finger E2C) (synthetic) (chain, as listed by the source): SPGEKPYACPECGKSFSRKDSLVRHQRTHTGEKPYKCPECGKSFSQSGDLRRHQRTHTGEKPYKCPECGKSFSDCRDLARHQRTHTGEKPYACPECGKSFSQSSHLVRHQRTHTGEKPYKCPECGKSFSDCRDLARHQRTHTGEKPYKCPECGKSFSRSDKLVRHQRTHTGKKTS

B1: Aart competitor hairpin, consensus (dsDNA)
DNA: GCATGTAGGGAAAAGCCCGGCGTCCTCGCCGGGCTTTTCCCTACATGC
As to B1, the binding result in series [1] is “binds”.

B2: Aart competitor hairpin, consensus ATA (dsDNA)
DNA: GCATGTAGGGAATAGCCCGGCGTCCTCGCCGGGCTATTCCCTACATGC
For the molecule B2, the binding signal in series [2] was 60 fold reduced vs consensus hairpin.

B3: Aart competitor hairpin, designed ATA (dsDNA)
DNA: GCATGTAGAGAATAACCAGGCGTCCTCGCCTGGTTATTCTCTACATGC
As for B3, the binding signal in series [2] is 20 fold reduced vs designed hairpin.

B4: E2C-HER2 100-118 hairpin-guide (dsDNA)
DNA: GAGGGGCCGGAGCCGCAGTGCGTCCTCGCACTGCGGCTCCGGCCCCTCAAAACGGCACAGACAGTGCGCGT
As to B4, the activity in series [3] was 4.3 fold luminescence over hairpin-guides alone.

B5: VEGF81-99-Aart hairpin-guide (dsDNA)
DNA: GATCTCATCAGGGTACTCCAAAACTCCGGGCTTTTCCCTACATGCTCCTGCATGTAGGGAAAAGCCCGGAG
B5: in series [4], the activity worked out at 39 fold luminescence.

B6: HER2 122-140-Aart hairpin-guide (dsDNA)
DNA: CCCTTGCAGCGGGCACAGCAAAACTCCGGGCTTTTCCCTACATGCTCCTGCATGTAGGGAAAAGCCCGGAG
Consider B6, for which the activity in series [5] is 4.3 fold luminescence over hairpin-guides alone.

B7: VEGF60-78-E2C hairpin-guide (dsDNA)
DNA: GAGGGGCCGGAGCCGCAGTGCGTCCTCGCACTGCGGCTCCGGCCCCTCAAAAGAAGATGTCCACCAGGGTC
B7 yielded an activity in series [6] of 39 fold luminescence.

B8: Pum1-E2C hairpin-guide (dsDNA)
DNA: GAGGGGCCGGAGCCGCAGTGCGTCCTCGCACTGCGGCTCCGGCCCCTCAAAACTATATACACCATG
With B8, the activity in series [7] was 4.5 fold luminescence over background.

B9: Pum2-Aart hairpin-guide (dsDNA)
DNA: GCCGCTATATCAAAAAACTCCGGGCTTTTCCCTACATGCTCCTGCATGTAGGGAAAAGCCCGGAG
B9: the activity in series [8] is 4.5 fold luminescence over background.
